# From paper PMC8301893, “Identification of HSP47 Binding Site on Native Collagen and Its Implications for the Development of HSP47 Inhibitors” (Biomolecules, 2021)
# B1: human HSP47 (heat shock protein 47), amino acids 19-418, C-terminal His-tag (natural protein)
# chain: AEVKKPAAAAAPGTAEKLSPKAATLAERSAGLAFSLYQAMAKDQAVENILVSPVVVASSLGLVSLGGKATTASQAKAVLSAEQLRDEEVHAGLGELLRSLSNSTARNVTWKLGSRLYGPSSVSFADDFVRSSKQHYNCEHSKINFRDKRSALQSINEWAAQTTDGKLPEVTKDVERTDGALLVNAMFFKPHWDEKFHHKMVDNRGFMVTRSYTVGVMMMHRTGLYNYYDDEKEKLQIVEMPLAHKLSSLIILMPHHVEPLERLEKLLTKEQLKIWMGKMQKKAVAISLPKGVVEVTHDLQKHLAGLGLTEAIDKNKADLSRMSGKKDLYLASVFHATAFELDTDGNPFDQDIYGREELRSPKLFYADHPFIFLVRDTQSGSLLFIGRLVRPKGDKMRDEL
# Tests used:
# [1] = target: Collagen from calf skin (Sigma-Aldrich, Cat No: C9791) (calf) (UniProt P02453)
# Sequence of UniProt P02453 (P02453 162-1217, chain 1 of 2): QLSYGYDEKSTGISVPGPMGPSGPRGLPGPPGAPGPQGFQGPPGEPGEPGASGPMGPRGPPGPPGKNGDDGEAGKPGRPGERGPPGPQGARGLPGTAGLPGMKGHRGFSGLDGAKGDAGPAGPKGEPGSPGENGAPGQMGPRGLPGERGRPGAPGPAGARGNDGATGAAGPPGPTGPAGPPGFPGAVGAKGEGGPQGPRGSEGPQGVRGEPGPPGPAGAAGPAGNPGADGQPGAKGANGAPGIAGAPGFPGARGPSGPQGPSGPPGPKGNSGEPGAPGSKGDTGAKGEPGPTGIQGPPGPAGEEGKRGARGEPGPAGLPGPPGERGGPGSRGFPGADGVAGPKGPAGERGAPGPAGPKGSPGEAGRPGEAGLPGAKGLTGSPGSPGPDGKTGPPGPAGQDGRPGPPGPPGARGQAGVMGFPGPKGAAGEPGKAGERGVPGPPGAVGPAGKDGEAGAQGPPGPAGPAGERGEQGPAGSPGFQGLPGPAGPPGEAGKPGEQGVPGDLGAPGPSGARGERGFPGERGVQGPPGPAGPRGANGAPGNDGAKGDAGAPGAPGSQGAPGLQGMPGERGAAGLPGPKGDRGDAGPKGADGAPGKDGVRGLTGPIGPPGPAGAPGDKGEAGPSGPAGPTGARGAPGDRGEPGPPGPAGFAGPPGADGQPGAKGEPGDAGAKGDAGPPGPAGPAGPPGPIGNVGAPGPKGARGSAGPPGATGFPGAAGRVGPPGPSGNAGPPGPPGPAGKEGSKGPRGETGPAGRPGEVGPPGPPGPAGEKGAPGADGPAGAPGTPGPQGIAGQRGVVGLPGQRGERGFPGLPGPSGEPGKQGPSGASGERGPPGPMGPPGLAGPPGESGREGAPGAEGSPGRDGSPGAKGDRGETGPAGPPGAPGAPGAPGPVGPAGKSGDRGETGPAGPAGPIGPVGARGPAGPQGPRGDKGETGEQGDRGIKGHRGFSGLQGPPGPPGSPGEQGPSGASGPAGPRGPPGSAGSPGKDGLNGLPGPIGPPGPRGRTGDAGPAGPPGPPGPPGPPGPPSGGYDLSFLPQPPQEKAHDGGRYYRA
# Sequence of UniProt P02453 (P02465 80-1117, chain 2 of 2, further chain): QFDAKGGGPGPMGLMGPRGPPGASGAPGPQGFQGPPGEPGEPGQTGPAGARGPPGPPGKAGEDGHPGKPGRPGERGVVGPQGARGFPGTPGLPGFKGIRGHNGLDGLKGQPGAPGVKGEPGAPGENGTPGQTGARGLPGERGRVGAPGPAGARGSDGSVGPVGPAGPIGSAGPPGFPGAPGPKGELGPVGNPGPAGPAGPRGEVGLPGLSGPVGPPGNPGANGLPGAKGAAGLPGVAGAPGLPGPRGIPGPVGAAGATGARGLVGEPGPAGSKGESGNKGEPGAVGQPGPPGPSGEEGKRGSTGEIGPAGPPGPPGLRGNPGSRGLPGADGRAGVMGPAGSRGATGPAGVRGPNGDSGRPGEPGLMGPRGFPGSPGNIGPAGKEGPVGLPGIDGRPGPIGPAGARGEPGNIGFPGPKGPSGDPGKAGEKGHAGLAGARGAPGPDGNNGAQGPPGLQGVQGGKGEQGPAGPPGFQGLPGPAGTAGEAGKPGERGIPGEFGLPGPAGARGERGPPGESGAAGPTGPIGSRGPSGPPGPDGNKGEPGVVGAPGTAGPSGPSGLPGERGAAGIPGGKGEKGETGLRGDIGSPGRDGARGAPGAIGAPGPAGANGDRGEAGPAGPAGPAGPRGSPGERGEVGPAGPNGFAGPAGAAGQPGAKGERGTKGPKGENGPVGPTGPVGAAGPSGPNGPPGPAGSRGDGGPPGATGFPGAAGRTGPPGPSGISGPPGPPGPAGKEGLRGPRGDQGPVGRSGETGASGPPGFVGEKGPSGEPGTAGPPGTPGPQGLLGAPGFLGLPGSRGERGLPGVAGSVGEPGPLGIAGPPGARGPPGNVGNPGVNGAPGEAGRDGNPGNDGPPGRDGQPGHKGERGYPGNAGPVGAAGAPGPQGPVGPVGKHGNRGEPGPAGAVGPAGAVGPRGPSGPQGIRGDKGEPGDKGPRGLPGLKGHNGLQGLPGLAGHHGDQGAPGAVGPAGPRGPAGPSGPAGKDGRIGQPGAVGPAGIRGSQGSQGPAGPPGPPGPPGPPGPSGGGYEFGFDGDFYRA
# [2] = target: Integrin peptide 1 (GFOGER flanked by [GPP]5 at both ends); experiment: ELISA; solid-phase binding assay (SPBA): peptides coated at 10 µg/mL overnight at 4 °C on Immulon 2HB 96-well plates, blocked with TBS containing 5% BSA; 1 µg/mL recombinant HSP47 for 1 h at room temperature; HRP-conjugated anti-His antibody, TMB, A450; means of three independent experiments
binder,measurement,setting,value
B1,IC50 of the small molecule Com II against HSP47 (2.6 μM) in the turbidity assay of collagen fibril formation,[1],50 to 100 µM
same,IC50 of the small molecule Hs1 against HSP47 (2.6 μM) in the turbidity assay of collagen fibril formation,[1],97 µM
same,IC50 of the small molecule Hs55 against HSP47 (2.6 μM) in the turbidity assay of collagen fibril formation,[1],55 µM
same,Mean A450,[2],> 2 A450
